Laboratory results reported in article PMC2799420.

Biological target: Lyngbya majuscula JHB protein 7968 (Lyngbya majuscula JHB)
Test: PAGE analysis; kind of PAGE (native or SDS) and conditions not told; mentioned only in the discussion

stoichiometry N: 2
Substance: Lyngbya majuscula JHB protein 7968 (natural protein)
